To fix the notation:
B1: Phosphatidylserine lipase ABHD16A (Homo sapiens), O95870 (parent)
chain: MAKLLSCVLGPRLYKIYRERDSERAPASVPETPTAVTAPHSSSWDTYYQPRALEKHADSILALASVFWSISYYSSPFAFFYLYRKGYLSLSKVVPFSHYAGTLLLLLAGVACLRGIGRWTNPQYRQFITILEATHRNQSSENKRQLANYNFDFRSWPVDFHWEEPSSRKESRGGPSRRGVALLRPEPLHRGTADTLLNRVKKLPCQITSYLVAHTLGRRMLYPGSVYLLQKALMPVLLQGQARLVEECNGRRAKLLACDGNEIDTMFVDRRGTAEPQGQKLVICCEGNAGFYEVGCVSTPLEAGYSVLGWNHPGFAGSTGVPFPQNEANAMDVVVQFAIHRLGFQPQDIIIYAWSIGGFTATWAAMSYPDVSAMILDASFDDLVPLALKVMPDSWRGLVTRTVRQHLNLNNAEQLCRYQGPVLLIRRTKDEIITTTVPEDIMSNRGNDLLLKLLQHRYPRVMAEEGLRVVRQWLEASSQLEEASIYSRWEVEEDWCLSVLRSYQAEHGPDFPWSVGEDMSADGRRQLALFLARKHLHNFEATHCTPLPAQNFQMPWHL
partner: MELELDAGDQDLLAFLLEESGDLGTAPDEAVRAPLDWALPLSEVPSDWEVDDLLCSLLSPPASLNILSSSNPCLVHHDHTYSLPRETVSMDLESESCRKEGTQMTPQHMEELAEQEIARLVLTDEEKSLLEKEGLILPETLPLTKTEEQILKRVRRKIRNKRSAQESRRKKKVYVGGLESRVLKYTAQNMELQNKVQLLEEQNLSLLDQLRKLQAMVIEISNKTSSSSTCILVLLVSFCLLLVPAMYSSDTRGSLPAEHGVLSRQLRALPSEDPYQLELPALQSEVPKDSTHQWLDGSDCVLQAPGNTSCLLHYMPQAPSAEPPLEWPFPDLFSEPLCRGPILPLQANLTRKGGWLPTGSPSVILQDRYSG
B2: Microtubule-associated tumor suppressor candidate 2 (Homo sapiens), Q5JR59-3 (parent)
chain: MGHCCCKPYNCLQCLDKTNESALVKEKELSIELANIRDEVAFHTAKCEKLQKEKEELERRFEDEVKRLGWQQQAELQELEERLQLQFEAEMARLQEEHGDQLLSIRCQHQEQVEDLTASHDAALLEMENNHTVAITILQDDHDHKVQELMSTHELEKKELEENFEKLRLSLQDQVDTLTFQSQSLRDRARRFEEALRKNTEEQLEIALAPYQHLEEDMKSLKQVLEMKNQQIHEQEKKILELEKLAEKNIILEEKIQVLQQQNEDLKARIDQNTVVTRQLSEENANLQEYVEKETQEKKRLSRTNEELLWKLQTGDPTSPIKLSPTSPVYRGSSSGPSSPARVSTTPR
partner: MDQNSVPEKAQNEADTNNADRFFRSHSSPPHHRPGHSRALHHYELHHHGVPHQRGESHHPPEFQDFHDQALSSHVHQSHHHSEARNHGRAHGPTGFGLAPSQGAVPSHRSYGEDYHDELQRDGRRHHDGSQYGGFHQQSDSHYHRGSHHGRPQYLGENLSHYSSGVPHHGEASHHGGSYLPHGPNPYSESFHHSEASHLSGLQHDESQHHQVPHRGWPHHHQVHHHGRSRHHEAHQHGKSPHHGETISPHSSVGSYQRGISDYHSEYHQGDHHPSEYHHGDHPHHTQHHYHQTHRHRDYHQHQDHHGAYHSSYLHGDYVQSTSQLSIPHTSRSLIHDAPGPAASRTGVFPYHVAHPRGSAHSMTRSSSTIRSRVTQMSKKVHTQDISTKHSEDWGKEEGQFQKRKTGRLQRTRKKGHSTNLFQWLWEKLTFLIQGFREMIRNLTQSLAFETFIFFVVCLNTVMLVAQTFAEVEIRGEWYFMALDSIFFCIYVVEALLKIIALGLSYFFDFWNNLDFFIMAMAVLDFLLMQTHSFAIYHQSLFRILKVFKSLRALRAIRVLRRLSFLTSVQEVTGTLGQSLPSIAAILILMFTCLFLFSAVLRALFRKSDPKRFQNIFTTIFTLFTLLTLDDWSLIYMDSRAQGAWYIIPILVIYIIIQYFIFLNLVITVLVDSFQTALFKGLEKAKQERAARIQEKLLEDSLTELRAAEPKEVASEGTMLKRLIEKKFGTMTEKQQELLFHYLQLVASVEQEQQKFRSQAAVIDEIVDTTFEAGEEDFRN
B3: Annexin A10 (Homo sapiens), Q9UJ72 (parent)
chain: MFCGDYVQGTIFPAPNFNPIMDAQMLGGALQGFDCDKDMLINILTQRCNAQRMMIAEAYQSMYGRDLIGDMREQLSDHFKDVMAGLMYPPPLYDAHELWHAMKGVGTDENCLIEILASRTNGEIFQMREAYCLQYSNNLQEDIYSETSGHFRDTLMNLVQGTREEGYTDPAMAAQDAMVLWEACQQKTGEHKTMLQMILCNKSYQQLRLVFQEFQNISGQDMVDAINECYDGYFQELLVAIVLCVRDKPAYFAYRLYSAIHDFGFHNKTVIRILIARSEIDLLTIRKRYKERYGKSLFHDIRNFASGHYKKALLAICAGDAEDY
partner: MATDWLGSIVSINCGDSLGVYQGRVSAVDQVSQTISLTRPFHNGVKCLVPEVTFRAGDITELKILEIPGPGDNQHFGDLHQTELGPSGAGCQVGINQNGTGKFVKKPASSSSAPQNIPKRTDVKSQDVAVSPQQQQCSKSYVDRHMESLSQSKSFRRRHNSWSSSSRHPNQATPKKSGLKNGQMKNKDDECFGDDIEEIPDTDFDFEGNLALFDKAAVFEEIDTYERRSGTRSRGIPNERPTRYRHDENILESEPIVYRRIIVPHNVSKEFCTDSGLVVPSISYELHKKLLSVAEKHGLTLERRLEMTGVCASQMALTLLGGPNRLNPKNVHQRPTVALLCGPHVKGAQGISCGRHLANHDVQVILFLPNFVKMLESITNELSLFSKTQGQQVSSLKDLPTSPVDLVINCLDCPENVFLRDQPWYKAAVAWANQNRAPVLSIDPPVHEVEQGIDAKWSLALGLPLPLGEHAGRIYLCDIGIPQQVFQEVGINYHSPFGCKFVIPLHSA
B4: Sperm-associated microtubule inner protein 4 (Homo sapiens), Q8N865 (parent)
chain: MEVIHGRPYCCRELEGADILSNTFYSNELHNPLQTVTRPTASEDRYQELRESLQQCRLPWGAEREYGGIIPISLPEDHRPKYEPPRVMGKGHQHYGFGGETWPRKLPVEQFYYLTQNKKSDVYGNDSLIPKPPNSTVGEICLPYPIEHPYHTHICRGAMFPTFTSPEDLYTGIKARTQQPFPPTVPTKAYDSTVLKTRGNPYRYELIDIPMDSKKKALTWPGQGVYYDFPRGVEKNKPVFYPKPPKTFAPNTSLNSWDPICSAKEANIQRNLERSHWLTSYTHDFTGLGPMDPLELDDYHEKMVAELTRKIGFDPEPQEKFHPVFKPPRPLEGRIARLIQNRRSLEAIVQQRPRSCPDCTPRVLCNFHTFVPSSKEMVALSDNIPAGVTHKNQDIEEKIIEEQSLLSTYELPSCYPTKDLTSIYDIKPFPKITDTKKTEDLYWRQQSLKTQPTPYCKPDHWIHYENLKSPLRDQYNMCPDPVSLSKPSVLQNKQDTEAFTLEHFLSKPEEELFLNMENNEETRPVLGWIPRAGVTKPQTNLLELKNSFSKTGAQKRFHKSILEDHKDLRDNEHSGMKHQFYGHNSYYFYN
partner: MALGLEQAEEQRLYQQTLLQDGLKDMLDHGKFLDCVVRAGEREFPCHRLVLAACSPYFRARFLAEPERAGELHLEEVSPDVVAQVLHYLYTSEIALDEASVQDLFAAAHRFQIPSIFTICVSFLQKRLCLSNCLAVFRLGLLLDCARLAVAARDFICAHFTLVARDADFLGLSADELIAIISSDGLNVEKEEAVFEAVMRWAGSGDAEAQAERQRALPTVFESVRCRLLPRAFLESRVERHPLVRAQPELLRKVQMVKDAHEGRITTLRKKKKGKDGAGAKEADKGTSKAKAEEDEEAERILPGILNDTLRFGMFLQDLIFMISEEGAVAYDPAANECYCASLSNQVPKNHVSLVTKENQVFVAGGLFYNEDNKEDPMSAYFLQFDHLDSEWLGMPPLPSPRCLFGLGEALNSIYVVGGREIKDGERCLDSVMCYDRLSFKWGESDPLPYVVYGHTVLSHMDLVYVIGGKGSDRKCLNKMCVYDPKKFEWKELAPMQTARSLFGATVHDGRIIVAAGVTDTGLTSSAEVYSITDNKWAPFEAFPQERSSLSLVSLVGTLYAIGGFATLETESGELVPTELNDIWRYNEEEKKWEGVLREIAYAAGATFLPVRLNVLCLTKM
B5: Plakophilin-2 (Homo sapiens), Q99959 (parent)
chain: MAAPGAPAEYGYIRTVLGQQILGQLDSSSLALPSEAKLKLAGSSGRGGQTVKSLRIQEQVQQTLARKGRSSVGNGNLHRTSSVPEYVYNLHLVENDFVGGRSPVPKTYDMLKAGTTATYEGRWGRGTAQYSSQKSVEERSLRHPLRRLEISPDSSPERAHYTHSDYQYSQRSQAGHTLHHQESRRAALLVPPRYARSEIVGVSRAGTTSRQRHFDTYHRQYQHGSVSDTVFDSIPANPALLTYPRPGTSRSMGNLLEKENYLTAGLTVGQVRPLVPLQPVTQNRASRSSWHQSSFHSTRTLREAGPSVAVDSSGRRAHLTVGQAAAGGSGNLLTERSTFTDSQLGNADMEMTLERAVSMLEADHMLPSRISAAATFIQHECFQKSEARKRVNQLRGILKLLQLLKVQNEDVQRAVCGALRNLVFEDNDNKLEVAELNGVPRLLQVLKQTRDLETKKQITDHTVNLRSRNGWPGAVAHACNPSTLGGQGGRITRSGVRDQPDQHGLLWNLSSNDKLKNLMITEALLTLTENIIIPFSGWPEGDYPKANGLLDFDIFYNVTGCLRNMSSAGADGRKAMRRCDGLIDSLVHYVRGTIADYQPDDKATENCVCILHNLSYQLEAELPEKYSQNIYIQNRNIQTDNNKSIGCFGSRSRKVKEQYQDVPMPEEKSNPKGVEWLWHSIVIRMYLSLIAKSVRNYTQEASLGALQNLTAGSGPMPTSVAQTVVQKESGLQHTRKMLHVGDPSVKKTAISLLRNLSRNLSLQNEIAKETLPDLVSIIPDTVPSTDLLIETTASACYTLNNIIQNSYQNARDLLNTGGIQKIMAISAGDAYASNKASKAASVLLYSLWAHTELHHAYKKAQFKKTDFVNSRTAKAYHSLKD

Variants of B1 are the subject of one assay. To be noted: with creb3_human CREB3, O43889.
As to R184L, the “effect of a mutation on the interaction” value is on record as “with no effect”.

Another assay covers variants of B2. As to conditions: with ctsr1_human CATSPER1, Q8NEC5.
For the variant A89V, the “effect of a mutation on the interaction” value is recorded as “with no effect”.

In the next assay the parent is B3. To be noted: with edc3_human EDC3, Q96F86.
Take F234S: the “effect of a mutation on the interaction” value is on record as “with no effect”.
The same measure, in the same setting: next, M62T: “disrupting interaction strength”; M71L: “with no effect”.

The variants in a further assay derive from B4. To be noted: with klh40_human KLHL40, Q2TBA0.
As to P238Q, the “effect of a mutation on the interaction” value was “with no effect”.
On to H300R, for which the “effect of a mutation on the interaction” value is “with no effect”.
Same read-out and setting: next, A158T: “with no effect”.

A further assay covers variants of B5. As to conditions: with mtus2_human MTUS2, Q5JR59.
Chain of mtus2_human MTUS2, Q5JR59 (Q5JR59 whole entry): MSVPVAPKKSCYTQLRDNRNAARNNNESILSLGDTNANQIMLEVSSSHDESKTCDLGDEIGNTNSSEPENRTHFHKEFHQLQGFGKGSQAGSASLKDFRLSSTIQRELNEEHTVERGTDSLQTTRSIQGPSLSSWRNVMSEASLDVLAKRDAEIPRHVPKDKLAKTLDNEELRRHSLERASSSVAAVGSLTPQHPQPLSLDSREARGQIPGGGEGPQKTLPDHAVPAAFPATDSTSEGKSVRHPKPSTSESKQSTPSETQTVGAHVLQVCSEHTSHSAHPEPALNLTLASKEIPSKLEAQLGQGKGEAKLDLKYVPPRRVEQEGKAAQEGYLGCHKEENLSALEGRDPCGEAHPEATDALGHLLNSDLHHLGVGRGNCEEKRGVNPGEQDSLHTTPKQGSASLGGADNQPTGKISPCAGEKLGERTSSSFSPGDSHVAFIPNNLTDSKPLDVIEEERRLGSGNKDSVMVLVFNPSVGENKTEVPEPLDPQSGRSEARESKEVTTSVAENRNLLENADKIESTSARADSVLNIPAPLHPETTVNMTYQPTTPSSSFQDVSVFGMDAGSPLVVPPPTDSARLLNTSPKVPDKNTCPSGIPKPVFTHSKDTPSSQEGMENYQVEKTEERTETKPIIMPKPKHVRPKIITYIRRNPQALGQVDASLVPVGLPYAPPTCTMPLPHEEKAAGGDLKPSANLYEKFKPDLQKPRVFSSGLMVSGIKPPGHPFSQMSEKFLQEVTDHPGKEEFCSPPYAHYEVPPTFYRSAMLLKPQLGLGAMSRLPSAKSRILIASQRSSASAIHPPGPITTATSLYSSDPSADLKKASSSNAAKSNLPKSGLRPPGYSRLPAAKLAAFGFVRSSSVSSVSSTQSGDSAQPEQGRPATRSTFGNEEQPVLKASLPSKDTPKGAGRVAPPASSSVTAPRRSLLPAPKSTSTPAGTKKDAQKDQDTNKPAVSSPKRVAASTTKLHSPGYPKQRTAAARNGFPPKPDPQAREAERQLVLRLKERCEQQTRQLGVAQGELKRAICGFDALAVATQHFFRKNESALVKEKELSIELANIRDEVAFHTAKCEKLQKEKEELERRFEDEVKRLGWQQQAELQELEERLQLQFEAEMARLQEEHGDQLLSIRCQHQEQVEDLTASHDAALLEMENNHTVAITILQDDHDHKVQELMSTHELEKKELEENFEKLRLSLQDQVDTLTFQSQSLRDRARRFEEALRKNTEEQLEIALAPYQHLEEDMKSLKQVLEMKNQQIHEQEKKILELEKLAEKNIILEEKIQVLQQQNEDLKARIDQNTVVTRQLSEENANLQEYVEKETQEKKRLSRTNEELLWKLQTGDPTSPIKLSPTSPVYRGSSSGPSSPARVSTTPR
With L366P, the “effect of a mutation on the interaction” value is “with no effect”.
The same measure, in the same setting: next, A264V: “with no effect”; E58D: “with no effect”.

These data come from IntAct's records for PubMed 31515488.
